This note sets out measurements from publication PMC4142144.

This assay has as its target 2CARD^RIG-I(E52A)-CARD^MAVS(KKK) fusion protein, 16 aa linker (human) (UniProt O95786). As to the kind of experiment: SEC-MALS. In general terms: Size exclusion chromatography separates by hydrodynamic size, large species first.

For “2CARD^RIG-I(E52A)-CARD^MAVS(KKK) fusion protein, 16 aa linker (from UniProt O95786 1-188; Q7Z434 1-97)”, the stoichiometry N (as a rule, a count of units in the complex or per binding partner) is 4.
